Measured values as given in patent publication US20240076386A1 (Pfizer, published 2024).
Changes are numbered by the printed parent chain.

T1: recombinant histidine-tagged human E-selectin (Sino Biologicals; 13025-H08H) (human, UniProt P16581 22-556)
T1 construct: also called recombinant human E-selectin; soluble recombinant human E-selectin
T1 sequence (looked up): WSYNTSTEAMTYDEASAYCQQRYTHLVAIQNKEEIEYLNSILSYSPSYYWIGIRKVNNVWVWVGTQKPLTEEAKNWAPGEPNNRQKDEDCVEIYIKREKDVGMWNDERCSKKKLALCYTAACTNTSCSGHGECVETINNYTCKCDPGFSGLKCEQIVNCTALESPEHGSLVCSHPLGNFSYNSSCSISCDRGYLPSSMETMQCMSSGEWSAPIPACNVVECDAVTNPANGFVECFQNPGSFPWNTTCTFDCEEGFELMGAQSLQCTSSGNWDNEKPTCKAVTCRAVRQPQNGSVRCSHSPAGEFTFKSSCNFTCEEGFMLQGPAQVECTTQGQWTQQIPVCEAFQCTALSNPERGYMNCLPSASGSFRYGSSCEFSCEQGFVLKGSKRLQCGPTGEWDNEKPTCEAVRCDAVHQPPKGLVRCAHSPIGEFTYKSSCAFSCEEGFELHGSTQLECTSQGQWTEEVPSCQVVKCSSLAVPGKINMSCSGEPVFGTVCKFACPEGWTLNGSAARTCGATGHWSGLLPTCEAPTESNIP

T2: recombinant histidine-tagged cynomolgus monkey E-selectin (Sino Biologicals; 190169-C08H) (cynomolgus monkey, UniProt A0A2K5U7H9 22-554)
T2 construct: also called recombinant cynomolgus monkey E-selectin
T2 sequence: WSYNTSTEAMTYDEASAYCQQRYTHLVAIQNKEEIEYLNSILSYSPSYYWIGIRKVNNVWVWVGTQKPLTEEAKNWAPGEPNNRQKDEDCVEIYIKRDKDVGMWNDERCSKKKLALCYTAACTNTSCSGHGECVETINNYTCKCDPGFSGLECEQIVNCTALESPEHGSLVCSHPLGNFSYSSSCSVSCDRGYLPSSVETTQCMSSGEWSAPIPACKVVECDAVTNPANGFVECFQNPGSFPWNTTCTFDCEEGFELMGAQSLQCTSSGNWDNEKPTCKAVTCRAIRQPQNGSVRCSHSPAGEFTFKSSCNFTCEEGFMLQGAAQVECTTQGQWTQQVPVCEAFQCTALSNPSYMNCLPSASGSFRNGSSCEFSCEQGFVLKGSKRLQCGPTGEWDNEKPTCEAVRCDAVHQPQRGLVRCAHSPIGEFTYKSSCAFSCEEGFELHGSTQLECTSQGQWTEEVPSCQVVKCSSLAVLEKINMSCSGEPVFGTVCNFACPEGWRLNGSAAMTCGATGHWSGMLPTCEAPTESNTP

T3: soluble recombinant human L-selectin (human, UniProt P14151 39-332, limits assumed)
T3 sequence (looked up): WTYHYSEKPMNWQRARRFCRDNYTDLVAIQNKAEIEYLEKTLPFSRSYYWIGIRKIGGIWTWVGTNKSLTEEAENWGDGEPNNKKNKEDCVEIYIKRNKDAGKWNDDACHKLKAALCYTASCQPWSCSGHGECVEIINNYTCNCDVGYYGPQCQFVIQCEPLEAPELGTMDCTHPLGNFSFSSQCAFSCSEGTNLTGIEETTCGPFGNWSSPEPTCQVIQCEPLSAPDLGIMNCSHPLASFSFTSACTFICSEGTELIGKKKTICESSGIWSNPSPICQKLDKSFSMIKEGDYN

B1: humanized anti-E-selectin antibody 0841 (antibody, human IgG1, kappa, V domains shown)
VH: EVQLVESGGGLVQPGGSLRLSCAASGYNIRSSYMHWVRQAPGKGLEWVARIDPANGNTIYAEKFKIRFTISADNAKNSAYLQMNSLRAEDTAVYYCAMDLYSTSEYWGQGTLVTVSS
VL: DIQMTQSPSSLSASVGDRVTITCKTSQNINRYLNWYQQKPGKAPKLLIYNANSLQTGVPSRFSGSGSGTDFTLTISSLQPEDFATYFCLQDNSWPLTFGQGTKVEIKR
notes: effector-null human IgG1, kappa
B2: optimized anti-E-selectin antibody 1282 (antibody, human IgG1, kappa, V domains shown)
VH: B1 VH with N28A, S32A, A61V, E62D, K63S, F64V, K65E, I66G
VL: B1 VL with N30E, N50A, N52S, T56S, S93A
notes: as for B1
B3: optimized anti-E-selectin antibody 1284 (antibody, human IgG1, kappa, V domains shown)
VH: B1 VH with N28A, S32A, A61V, K63S, F64V, K65E, I66G
VL: B1 VL with N30E, N50A, N52S, T56S, S93A
notes: as for B1
B4: optimized anti-E-selectin antibody 1444 (antibody, human IgG1, kappa, V domains shown)
VH: B1 VH with N28A, S32A, A61V, E62D, K63S, F64V, K65T, I66G
VL: B1 VL with N30E, N50A, N52S, T56S, S93A
notes: as for B1
B5: optimized anti-E-selectin antibody 1448 (antibody, human IgG1, kappa, V domains shown)
VH: B1 VH with N28A, S32A, A61V, E62D, K63S, F64V, I66E
VL: B1 VL with N30E, N50A, N52S, T56S, S93A
notes: as for B1

What was measured:
[1] = biological target: T1, recombinant histidine-tagged human …; test: direct binding ELISA, His-tagged selectin on plate
Description: (§1) Recombinant histidine tagged human P-, E- or L-selectin (Sino Biologicals), mouse E-selectin (Sino Biologicals), rat E-selectin (Sino Biologicals) and Cynomolgus monkey E-selectin (Sino Biologicals) stock solutions were prepared to a final concentration of 1 μg/mL in phosphate buffered saline without calcium and magnesium. Controls included an L-selectin directed antibody (BioLegend; 304811) or P-selectin directed antibody or a negative control IgG. One hundred μL per well of the diluted recombinant selectin proteins were added into a Ni-NTA HisSorb 96 well plate (Qiagen; 35061). Plates were incubated on an orbital shaker at room temperature for 2 hours. Following the incubation, the plates were washed 3 times with 200 μL of wash buffer (50 mM TRIS [trisaminomethane]; 150 mM sodium chloride; 0.05% polysorbate 20, pH 7.4). To decrease nonspecific binding, plates were treated with 200 μL of blocking buffer (BD Opteia buffer; 555213; BD Biosciences), incubated on an orbital shaker for 1 hour at room temperature and washed as described above. […] One hundred μL specific detection antibodies (described below) were added and incubated for 1 hour: [0556] […] Anti L-selectin and anti-rat-E-selectin antibodies were detected using 1 to 25000 dilution of Peroxidase-conjugated AffiniPure Goat Anti-Mouse IgG (H+L); (Jackson ImnnunoResearch Lab).
(§2) Plates were washed and 100 μL per well of 1-Step Ultra TMB substrate (Thermo Scientific) was added and incubated for 5 minutes at room temperature. Reactions were stopped with 100 μL of 2 M sulfuric acid and absorbance read at 450 nm (Spectramax M5e).

[2] = biological target: T2, recombinant histidine-tagged cynomolgus …; test: direct binding ELISA, His-tagged selectin on plate
Description: as §1, §2

[3] = biological target: T3, soluble recombinant human L-selectin; test: direct binding ELISA on immobilized human L-selectin, absorbance at 450 nm
Description: as §1, §2

Row | Binder | EC50 [1] [pM] | EC50 [2] [pM] | binding result [3]
1 | B1 | 170 | 81 | no binding (tested: 10 ug/ml)
2 | B2 | – | – | no binding (tested: 10 ug/ml)
3 | B3 | 100 | 82 | no binding (tested: 10 ug/ml)
4 | B4 | 120 | 93 | no binding (tested: 10 ug/ml)
5 | B5 | – | – | no binding (tested: 10 ug/ml)
